Assay results from PMC4212957, “The serodominant secreted effector protein of Salmonella, SseB, is a strong CD4 antigen containing an immunodominant epitope presented by diverse HLA class II alleles” (Immunology, 2014).

What was measured:
HLA-DRB1*11:01 = HLA-DRB1*11:01 (Homo sapiens, UniProt P01903+P01911, A100R/A169T/A87E/I96F/K41T/L162R/M171V/P40S/Q125H/Q178H/Q39Y/Q99D/R42S/S66Y/T262R/V115G/W38E); details: competitive ELISA; ratio IC50 of peptide / IC50 of reference peptide HA 306–318; lower = higher affinity; ratio 20 or less high, 20–100 moderate; three independent experiments
HLA-DRB1*04:01 = HLA-DRB1*04:01 (Homo sapiens, UniProt P01903+P01911, A100K/A169T/F76Y/I96L/K127E/L162R/M171V/N62H/P40V/Q125Y/R42H/S133A/S149N/S66Y/V115G/V209L/W38E); details: competitive ELISA; ratio IC50 of peptide / IC50 of reference peptide HA 306–318; lower = higher affinity; ratio 20 or less high, 20–100 moderate; three independent experiments
HLA-DRB1*12:02 = HLA-DRB1*12:02 (Homo sapiens, UniProt P01903+P01911, A100R/A169T/D57E/D86V/F55L/H45Y/I96F/K41T/L162R/M171V/P40S/Q125H/Q178H/Q39Y/Q99D/R42G/S66L/T262R/V114A/V67L/W38E/Y59H/Y61H/Y89S); experiment: Peptide/HLA-DR binding, competitive ELISA; details: ratio IC50 of peptide / IC50 of reference peptide TFR 141–155, lower = higher affinity, ratio 20 or less high, 20–100 moderate, three independent experiments
Method: (§1) HLA-DR heterodimers were purified from homozygous Epstein–Barr virus B-lymphoblastoid cell lines (HPA Culture Collections, Salisbury, UK) by affinity chromatography with the monomorphic HLA-DRα monoclonal antibody, L243.[29],[30] Binding of the SseB peptide panel to the HLA-DR molecules HLA-DRB1*01:01, 03:01, 04:01, 07:01, 09:01, 11:01, 12:02, 15:01, 15:02 was assessed by competitive ELISA, as previously described, using an automated workstation.[29],[30] We evaluated the peptide concentration able to prevent binding of 50% of the labelled peptide (IC50). Data were expressed as relative affinity: ratio of the IC50 of the peptide to the IC50 of the reference peptide, which is a high binder to the HLA class II molecule. Unlabelled forms of the biotinylated peptides were used as reference peptides.

HLA-DRB1*03:01 = biological target: T1, HLA-DRB1*03:01 (Homo sapiens, UniProt P01903+P01911, A100K/A102G/A103R/A169T/F55Y/I96L/K41T/L162R/M171V/P40S/Q125H/Q178H/Q39Y/R42S/S66N/T106N/T262R/W38E/Y61H); experiment: Peptide/HLA-DR binding, competitive ELISA; details: ratio IC50 of peptide / IC50 of reference peptide MT2-16, lower = higher affinity, ratio 20 or less high, 20–100 moderate, three independent experiments
T1 construct: HLA-DR heterodimers were purified from homozygous Epstein–Barr virus B-lymphoblastoid cell lines; host or cells: homozygous EBV B-lymphoblastoid cell line
Method: as §1

HLA-DRB1*15:02 = biological target: T2, HLA-DRB1*15:02 (Homo sapiens, UniProt P01903+P01911, V115G); experiment: Peptide/HLA-DR binding, competitive ELISA; details: ratio IC50 of peptide / IC50 of reference peptide TFR 607–620, lower = higher affinity, ratio 20 or less high, 20–100 moderate, three independent experiments
T2 construct: HLA-DR heterodimers were purified from homozygous Epstein–Barr virus B-lymphoblastoid cell lines; host or cells: homozygous EBV B-lymphoblastoid cell line
Method: as §1

HLA-DRB1*15:01 = biological target: T3, HLA-DRB1*15:01 (Homo sapiens, UniProt P01903+P01911); experiment: Peptide/HLA-DR binding, competitive ELISA; details: ratio IC50 of peptide / IC50 of reference peptide A3 152–166, lower = higher affinity, ratio 20 or less high, 20–100 moderate, three independent experiments
T3 construct: HLA-DR heterodimers were purified from homozygous Epstein–Barr virus B-lymphoblastoid cell lines; host or cells: homozygous EBV B-lymphoblastoid cell line
Method: as §1

HLA-DRB1*09:01 = biological target: T4, HLA-DRB1*09:01 (Homo sapiens, UniProt P01903+P01911, A100R/A103E/D57H/D86V/F55Y/F60I/F76Y/I96F/K127E/L162R/M171V/P40D/Q125H/Q99R/R33Q/R42F/S133A/S66N/T210M/V115G/W38K/Y107V/Y59G/Y89S); experiment: Peptide/HLA-DR binding, competitive ELISA; details: ratio IC50 of peptide / IC50 of reference peptide CTP 427–441, lower = higher affinity, ratio 20 or less high, 20–100 moderate, three independent experiments
T4 construct: HLA-DR heterodimers were purified from homozygous Epstein–Barr virus B-lymphoblastoid cell lines; host or cells: homozygous EBV B-lymphoblastoid cell line
Method: as §1

HLA-DRB1*01:01 = HLA-DRB1*01:01 (Homo sapiens, UniProt P01903+P01911, A100R/D57E/F55L/F60I/F76Y/I96L/L162R/M171V/P40L/Q125E/R42F/V115G/Y59C); details: competitive ELISA; ratio IC50 of peptide / IC50 of reference peptide HA 306–318; lower = higher affinity; ratio 20 or less high, 20–100 moderate; three independent experiments
HLA-DRB1*07:01 = HLA-DRB1*07:01 (Homo sapiens, UniProt P01903+P01911, A100R/A102G/A103Q/D57E/D86V/E43K/F76Y/K127E/L162R/M171V/P40G/Q125H/Q99D/R33Q/R42Y/R54Q/S133A/S66F/T210M/V115G/Y107V/Y59L/Y89S); details: competitive ELISA; ratio IC50 of peptide / IC50 of reference peptide HA 306–318; lower = higher affinity; ratio 20 or less high, 20–100 moderate; three independent experiments

| Substance | Relative binding affinity of peptide to HLA-DR molecules DRB1*1101 (HLA-DRB1*11:01) | Relative binding affinity of peptide to HLA-DR molecules DRB1*0401 (HLA-DRB1*04:01) | Relative binding affinity of peptide to HLA-DR molecules DRB1*1202 (HLA-DRB1*12:02) | Relative binding affinity of peptide to HLA-DR molecules DRB1*0301 (HLA-DRB1*03:01) | Relative binding affinity of peptide to HLA-DR molecules DRB1*1502 (HLA-DRB1*15:02) | Relative binding affinity of peptide to HLA-DR molecules DRB1*1501 (HLA-DRB1*15:01) | Relative binding affinity of peptide to HLA-DR molecules DRB1*0901 (HLA-DRB1*09:01) | Relative binding affinity of peptide to HLA-DR molecules DRB1*0101 (HLA-DRB1*01:01) | Relative binding affinity of peptide to HLA-DR molecules DRB1*0701 (HLA-DRB1*07:01) |
| --- | --- | --- | --- | --- | --- | --- | --- | --- | --- |
| 10: SseB overlapping library peptide, residues 91–110 (GDAKTKEEVPEDVIKYMRDN) [Peptide 10] | > 278 | > 145 | > 136 | > 119 | > 3 333 | 58 | > 689 | > 4149 | 87 |
| 12: SseB overlapping library peptide, residues 111–130 (GILIDGMTIDDYMAKYGDHG) [Peptide 12] | > 278 | > 145 | 105 | 18 | 1 826 | 12 | > 689 | > 4149 | 167 |
| 13: SseB overlapping library peptide, residues 121–140 (DYMAKYGDHGKLDKGGLQAI) [Peptide 13] | > 278 | > 145 | > 136 | > 119 | 2 000 | 12 | > 689 | 2958 | > 336 |
| 15: SseB overlapping library peptide, residues 141–160 (KAALDNDANRNTDLMSQGQI) [Peptide 15] | > 278 | > 145 | > 136 | 57 | > 3 333 | > 270 | > 689 | > 4149 | > 336 |
| 16: SseB overlapping library peptide, residues 151–170 (NTDLMSQGQITIQKMSQELN) [Peptide 16] | > 278 | > 145 | 52 | > 119 | > 3 333 | > 270 | > 689 | 964 | > 336 |
| 17: SseB overlapping library peptide, residues 161–180 (TIQKMSQELNAVLTQLTGLI) [Peptide 17] | > 278 | > 145 | > 136 | > 119 | > 3 333 | > 270 | > 689 | 18 | 8 |
